These results are taken from patent US20240279318A1 (NANJING LEGEND BIOTECH, published 2024).

Positions count from the first letter of the chain named.

B1: AS170036 VL1VH1-56N98I108S (scFv)
scFv: QSALTQPRSVSGSPGQSVTISCAGTSSDVGSENYVSWYQQHPGKAPKLMIYQVNKRASGVPDRFSGSKSGNTASLTISGLQAEDEADYYCASYRSSDINIVFGGGTKLTVLGGGGSGGGGSGGGGSEVQLVESGGGLVQPGGSLRLSCAASGFTFSSYAMSWVRQAPGKGLEWVSTINSGTNSPYYADSVKGRFTISRDNSKNTLYLQMNSLRAEDTAVYYCAKNFFDGSWFLSPPAMDYWGQGTLVTVSSHHHHHH
notes: also called 54-AS170036 VL1VH1-56N98I108S
B2: AS170036 VL1VH1-57H98I108S (scFv)
scFv: B1 scFv with N182G, S183H
notes: also called 63-AS170036 VL1VH1-57H98I108S
B3: AS170036 VL1VH1-57K98F108S (scFv)
scFv: B1 scFv with I98F, N182G, S183K
notes: also called 69-AS170036 VL1VH1-57K98F108S
B4: AS170036 VL1VH1-56N98Q108S (scFv)
scFv: B1 scFv with I98Q
notes: also called 57-AS170036 VL1VH1-56N98Q108S
B5: AS170036 VL1VH1-57H98I108D (scFv)
scFv: B1 scFv with N182G, S183H, S234D
notes: also called 62-AS170036 VL1VH1-57H98I108D
B6: AS170036 VL1VH1-56Y98Q108A (scFv)
scFv: B1 scFv with I98Q, N182Y, S234A
notes: also called 46-AS170036 VL1VH1-56Y98Q108A
B7: AS170036 VL1VH1-57K98F108D (scFv)
scFv: B1 scFv with I98F, N182G, S183K, S234D
notes: also called 68-AS170036 VL1VH1-57K98F108D
B8: AS170036 VL1VH1-57K98Q108D (scFv)
scFv: B1 scFv with I98Q, N182G, S183K, S234D
notes: also called 74-AS170036 VL1VH1-57K98Q108D
B9: AS170036 VL1VH1-57H98Q108A (scFv)
scFv: B1 scFv with I98Q, N182G, S183H, S234A
notes: also called 64-AS170036 VL1VH1-57H98Q108A
B10: AS170036 VL1VH1-57H98F108A (scFv)
scFv: B1 scFv with I98F, N182G, S183H, S234A
notes: also called 58-AS170036 VL1VH1-57H98F108A
B11: AS170036 VL1VH1-57K98I108A (scFv)
scFv: B1 scFv with N182G, S183K, S234A
notes: also called 70-AS170036 VL1VH1-57K98I108A
B12: AS170036 VL1VH1-57H98F108D (scFv)
scFv: B1 scFv with I98F, N182G, S183H, S234D
notes: also called 59-AS170036 VL1VH1-57H98F108D
B13: AS170036 VL1VH1-56Y98Q108S (scFv)
scFv: B1 scFv with I98Q, N182Y
notes: also called 48-AS170036 VL1VH1-56Y98Q108S
B14: AS170036 VL1VH1-56N98Q108D (scFv)
scFv: B1 scFv with I98Q, S234D
notes: also called 56-AS170036 VL1VH1-56N98Q108D
B15: AS170036 VL1VH1-56Y98I108D (scFv)
scFv: B1 scFv with N182Y, S234D
notes: also called 44-AS170036 VL1VH1-56Y98I108D
B16: AS170036 VL1VH1-57H98I108A (scFv)
scFv: B1 scFv with N182G, S183H, S234A
notes: also called 61-AS170036 VL1VH1-57H98I108A
B17: AS170036 VL1VH1-56Y98F108A (scFv)
scFv: B1 scFv with I98F, N182Y, S234A
notes: also called 40-AS170036 VL1VH1-56Y98F108A
B18: AS170036 VL1VH1-57K98F108A (scFv)
scFv: B1 scFv with I98F, N182G, S183K, S234A
notes: also called 67-AS170036 VL1VH1-57K98F108A
B19: AS170036 VL1VH1-56Y98Q108D (scFv)
scFv: B1 scFv with I98Q, N182Y, S234D
notes: also called 47-AS170036 VL1VH1-56Y98Q108D
B20: AS170036 VL1VH1-57H98Q108D (scFv)
scFv: B1 scFv with I98Q, N182G, S183H, S234D
notes: also called 65-AS170036 VL1VH1-57H98Q108D
B21: AS170036 VL1VH1-56Y98I108A (scFv)
scFv: B1 scFv with N182Y, S234A
notes: also called 43-AS170036 VL1VH1-56Y98I108A
B22: AS170036 VL1VH1-57H98F108S (scFv)
scFv: B1 scFv with I98F, N182G, S183H
notes: also called 60-AS170036 VL1VH1-57H98F108S
B23: AS170036 VL1VH1-57K98Q108A (scFv)
scFv: B1 scFv with I98Q, N182G, S183K, S234A
notes: also called 73-AS170036 VL1VH1-57K98Q108A
B24: AS170036 VL1VH1-57K98I108S (scFv)
scFv: B1 scFv with N182G, S183K
notes: also called 72-AS170036 VL1VH1-57K98I108S
B25: AS170036 VL1VH1-57M98F108A (scFv)
scFv: B1 scFv with I98F, N182G, S183M, S234A
notes: also called 76-AS170036 VL1VH1-57M98F108A
B26: AS170036 VL1VH1-56Y98F108D (scFv)
scFv: B1 scFv with I98F, N182Y, S234D
notes: also called 41-AS170036 VL1VH1-56Y98F108D
B27: AS170036 VL1VH1-57K98Q108S (scFv)
scFv: B1 scFv with I98Q, N182G, S183K
notes: also called 75-AS170036 VL1VH1-57K98Q108S
B28: AS170036 VL1VH1-57M98F108D (scFv)
scFv: B1 scFv with I98F, N182G, S183M, S234D
notes: also called 77-AS170036 VL1VH1-57M98F108D
B29: AS170036 VL1VH1-56Y98F108S (scFv)
scFv: B1 scFv with I98F, N182Y
notes: also called 42-AS170036 VL1VH1-56Y98F108S
B30: AS170036 VL1VH1-56N98Q108A (scFv)
scFv: B1 scFv with I98Q, S234A
notes: also called 55-AS170036 VL1VH1-56N98Q108A
B31: AS170036 VL1VH1-57H98Q108S (scFv)
scFv: B1 scFv with I98Q, N182G, S183H
notes: also called 66-AS170036 VL1VH1-57H98Q108S
B32: AS170036 VL1VH1-57K98I108D (scFv)
scFv: B1 scFv with N182G, S183K, S234D
notes: also called 71-AS170036 VL1VH1-57K98I108D
B33: AS170036 VL1VH1-56Y98I108S (scFv)
scFv: B1 scFv with N182Y
notes: also called 45-AS170036 VL1VH1-56Y98I108S
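Wherever Affinity increase is given: crude scFv muteins immobilised on a sensor chip, peptide–MHC complex passed over at several concentrations, binding then buffer-driven dissociation, KD estimated from on- and off-rates.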

For the first assay, the target named is T1, AFP158/HLA-A*02:01 complex (human).
T1 construct: flowed as analyte in SPR
Kind of assay: SPR, crude scFv captured, pMHC analyte.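 Further: complex injected at several concentrations over the chip, association phase then running buffer for dissociation, KD derived from on- and off-rates computed from both curves.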
B1 showed a Kd of 10 nM, a koff of 0.0019 s⁻¹ and a kon of 190000 M⁻¹ s⁻¹.
As to B2, the Kd is 8.5 nM, the koff came out at 0.0014 s⁻¹ and the kon was found to be 160000 M⁻¹ s⁻¹.
B3 gave a Kd of 8.3 nM, an off-rate constant (koff) of 0.0014 s⁻¹ and a kon of 160000 M⁻¹ s⁻¹.
In the same order, the values of B4 are 11 nM, 0.0019 s⁻¹ and 180000 M⁻¹ s⁻¹.
In the same order, the values of B5 are 4.9 nM, 0.0012 s⁻¹ and 250000 M⁻¹ s⁻¹.
In the same order, the values of B6 are 1.2 nM, 0.00028 s⁻¹ and 230000 M⁻¹ s⁻¹.
In the case of B7, binding was characterised by a dissociation constant (Kd) of 4.1 nM, the koff was found to be 0.001 s⁻¹ and the kon stood at 250000 M⁻¹ s⁻¹.
For B8, the Kd is 3.8 nM, the koff is 0.00077 s⁻¹ and the kon was 200000 M⁻¹ s⁻¹.
In the same order, the values of B9 are 1.8 nM, 0.00041 s⁻¹ and 230000 M⁻¹ s⁻¹.
In the same order, the values of B10 are 1.5 nM, 0.0004 s⁻¹ and 260000 M⁻¹ s⁻¹.
For B11, binding was characterised by a dissociation constant (Kd) of 4.3 nM, the off-rate constant (koff) worked out at 0.00082 s⁻¹ and the kon came to 190000 M⁻¹ s⁻¹.
Consider B12, for which binding was put at a Kd of 1.8 nM, the koff is 0.00053 s⁻¹ and the kon is 290000 M⁻¹ s⁻¹.
Molecule B13 came in with a Kd of 3.3 nM, a koff of 0.00055 s⁻¹ and a kon of 160000 M⁻¹ s⁻¹.
In the same order, the values of B14 are 5.8 nM, 0.0015 s⁻¹ and 260000 M⁻¹ s⁻¹.
B15 registered a Kd of 1.5 nM, a koff of 0.00038 s⁻¹ and a kon of 260000 M⁻¹ s⁻¹.
On to B16, for which the affinity, expressed as Kd, was 3.3 nM; the koff was 0.00076 s⁻¹; the kon turned out to be 230000 M⁻¹ s⁻¹.
Molecule B17 yielded a Kd of 1.6 nM, a koff of 0.00038 s⁻¹ and a kon of 240000 M⁻¹ s⁻¹.
For the molecule B18, the affinity, expressed as Kd, was 3.5 nM; the koff worked out at 0.00079 s⁻¹; the kon is 230000 M⁻¹ s⁻¹.
In the same order, the values of B19 are 1.8 nM, 0.00044 s⁻¹ and 240000 M⁻¹ s⁻¹.
Take B20: the Kd was determined as 2.5 nM, the koff was 0.00063 s⁻¹ and the kon stood at 250000 M⁻¹ s⁻¹.
In the same order, the values of B21 are 1.1 nM, 0.00025 s⁻¹ and 240000 M⁻¹ s⁻¹.
In the same order, the values of B22 are 3.4 nM, 0.00068 s⁻¹ and 200000 M⁻¹ s⁻¹.
For the molecule B23, the affinity, expressed as Kd, was 2.8 nM; the koff amounted to 0.00053 s⁻¹; the kon amounted to 190000 M⁻¹ s⁻¹.
In the same order, the values of B24 are 11 nM, 0.0013 s⁻¹ and 120000 M⁻¹ s⁻¹.
B25 registered a Kd of 5.2 nM, a koff of 0.0013 s⁻¹ and a kon of 260000 M⁻¹ s⁻¹.
B26 had a Kd of 2 nM, a koff of 0.00054 s⁻¹ and a kon of 270000 M⁻¹ s⁻¹.
In the same order, the values of B27 are 6.8 nM, 0.00086 s⁻¹ and 130000 M⁻¹ s⁻¹.
Consider B28, for which binding was characterised by a dissociation constant (Kd) of 6.2 nM, the koff is 0.0018 s⁻¹ and the kon was found to be 280000 M⁻¹ s⁻¹.
In the same order, the values of B29 are 4 nM, 0.00074 s⁻¹ and 190000 M⁻¹ s⁻¹.
In the same order, the values of B30 are 4.2 nM, 0.001 s⁻¹ and 240000 M⁻¹ s⁻¹.
In the same order, the values of B31 are 4 nM, 0.00065 s⁻¹ and 160000 M⁻¹ s⁻¹.
Molecule B32 registered a Kd of 5.8 nM, a koff of 0.0012 s⁻¹ and a kon of 210000 M⁻¹ s⁻¹.
In the same order, the values of B33 are 2.8 nM, 0.0005 s⁻¹ and 180000 M⁻¹ s⁻¹.

For a further assay, the target named is T1, AFP158/HLA-A*02:01 complex. Briefly: SPR, fold vs AS170036 VL1VH1. (In general: SPR reads the build-up and loss of mass on a sensor chip optically.)
Procedure: The experiment was carried out as follows. The crude scFv protein were captured onto the sensorchip. Different concentrations (320, 160, 40 nM) of AFP158/HLA-A*02:01 complex flowed over the sensorchip surface, and were allowed to bind the antibody fragment for 100 s followed by injection of the running buffer to allow dissociation of the complex. On-rate (kd) and off-rate (kd) were calculated based on association and dissociation curve, and were used to estimate the equilibrium dissociation constant (KD).
The crude scFv muteins were then subjected to SPR affinity measurement by the method mentioned above.
As to B1, the Affinity increase amounted to 22.3 fold.
B2 registered an Affinity increase of 26.4 fold.
On the same count and under the same terms, under B3 stands 27 fold; under B4, 20.8 fold; under B5, 45.9 fold.
The same measure, in the same setting: under B6 stands 183 fold; under B7, 54.5 fold; under B8, 58.7 fold.
B9 registered an Affinity increase of 128 fold.
On the same count and under the same terms, next, B10: 146 fold.
Same read-out and setting: next, B11: 52.6 fold; B12: 124 fold; B13: 67.4 fold.
Still for that read-out and setting: under B14 stands 39.1 fold.
B15 gave an Affinity increase of 152 fold.
Same read-out and setting: under B16 stands 67.6 fold.
The same measure, in the same setting: under B17 stands 142 fold; under B18, 64.3 fold.
As to B19, the Affinity increase worked out at 122 fold.
The molecule B20 came in with an Affinity increase of 90.7 fold.
Still for that read-out and setting: under B21 stands 212 fold.
Same read-out and setting: under B22 stands 66.2 fold; under B23, 80.4 fold.
Still for that read-out and setting: next, B24: 21 fold.
Molecule B25 came in with an Affinity increase of 43.4 fold.
Molecule B26 displayed an Affinity increase of 110 fold.
The same measure, in the same setting: under B27 stands 33 fold; under B28, 36.2 fold; under B29, 56.3 fold.
On the same count and under the same terms, next, B30: 54.1 fold; B31: 56.3 fold.
For the molecule B32, the Affinity increase is 38.7 fold.
The same measure, in the same setting: next, B33: 81.5 fold.

The term Kd denotes the equilibrium constant for the complex coming apart. A higher Kd goes with weaker binding. The koff is the first-order rate constant of dissociation. Read a low koff as a long-lived complex. What is called kon is the second-order rate constant of association.
